{
  "source": "the nanobody polyreactivity screen of Harvey et al. (2022)",
  "data": [
    {"assay": "yeast display, Sf9 membrane polyspecificity reagent, FACS + sequencing; frameworks hold sequencing errors", "how_it_was_run": "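Polyreactivity labels are assigned by the sorting gate from which each nanobody was recovered. The gates were low and high (top ~1%), set on anti-HA fluorescence for expression and streptavidin fluorescence for reagent binding. Before sorting, galactose-induced (36–48 hours) yeast display cells were stained for 1 hour at 4 °C with 10% biotinylated, detergent-solubilized Sf9 membrane reagent.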", "values": [
      {"sequence": "QVQLVESGGGLVQAGGSLRLSCAASGSIFSRNAMGWYRQAPGKERELVAAISYSGGTTYYADSVKGRFTISRDYAKNTVYLQMNSLKPEDTAVYYCNKRYWVRTGKVSSYDYWGQGTQVSVSS", "polyreactivity (PSR sort gate)": "high polyreactivity"},
      {"sequence": "QVQLVESGGGLVQAGGCLRLSCAASGRTFYRNVMGWYRQAPGKEREWVGAISSRGGSTYYADSVKGRFTISRDNAKNTVYLQMNSLKPEDTAVYYCAAEGTYYGSDYWGQGTQVTVSS", "polyreactivity (PSR sort gate)": "high polyreactivity"},
      {"sequence": "QVHLVESGRGLVQAGGSLSVTCSASGFTFYWYTMGWYRRAPGKERELVAAISRRGGSTSYADSVKGRFTISRDNAKNTVYLKMKILKPDDTAVYYCAKTPGWTDYDYWGQGTQVTVSS", "polyreactivity (PSR sort gate)": "high polyreactivity"},
      {"sequence": "QVQQQQSGGGLVQAGGSLSLSCAASGTIFQLTVMGRYRQAPGKERELVASIDYGGNTNYADSVKGRFTISRDNAKNTVYLQMNSLKPEDTEVYYCAASSDTWTTHPFWGQGTQVTVSS", "polyreactivity (PSR sort gate)": "low polyreactivity"},
      {"sequence": "QVQLVESGGGLVQAGGSLRISCAASGIIFSPYVMGWYRQAPGKERELVAAITTGDSTNYADSVKGRFTISRDNAKNTVYLQMKSLKPEDSAVYYCNADLYVGYLYYLFDYWGQGTQVSVSS", "polyreactivity (PSR sort gate)": "low polyreactivity"},
      {"sequence": "QVQLVESGGGLVQAGGSLRLSCAASGITFYGYAMGWYRQAPGKERELVARITASGGSTYYADSVKGRFTISRDNAKNTVYLQMKSLKPEVTAVYYCAKDWYRYSRFDYWGQGTQVTVSS", "polyreactivity (PSR sort gate)": "high polyreactivity"},
      {"sequence": "QVQLVESGGRLVQAGGSLRLSCAASGSIFGYNAMGWYRQAPGKESELVAAIDKSGGNTYYADSVKGRFTISRDNANYTVYLQMNSLKPEDTAVDYCAVRAYRHRSGYSYGYWGQGTQVTVSS", "polyreactivity (PSR sort gate)": "high polyreactivity"},
      {"sequence": "QVQLVESGGGLVQAGGSLRLSCAASGFIFGQNDMGWYRQAPGKERELVAAISSDGSTYYADSVKGRFTISRDNAKNTVYLQMNSLKPEDTAVYYCAAEYSWYYYYLYVGEYDYWGQGTQVTVSS", "polyreactivity (PSR sort gate)": "low polyreactivity"},
      {"sequence": "QVQLVESGGGLVQAGGSLRLSCAASGYILRRNAMGWYRQAPGKERELVARINSSGGSTYYADSVKGRFTISRDNAKNTVYLQMNSLKPEDTAVYYCAKSYYRGRDYWGQGTQVTVSS", "polyreactivity (PSR sort gate)": "high polyreactivity"},
      {"sequence": "QVQLVESGGGLVQAGGSLRLSCAASGGIFTGNAMGWYRQAPGKERELVAAINRRTGSTYYADSVKGRFTISRDNAKNTVYLQMNSLKPEDTAVYYCATRRYRSYTYDYWGQGTQVTVSS", "polyreactivity (PSR sort gate)": "high polyreactivity"},
      {"sequence": "QVQLVESGGGLVQAGGSLRLSCAASGRIFYRYGMGWYRQAPGKERELVASITRGGSTYYADSVKGRFTISRDNAKNTVYLQMNSLKPEDTAVYYCNAQTRYRYQYGYLGGTGYNYWGQGTQVTVSS", "polyreactivity (PSR sort gate)": "low polyreactivity"},
      {"sequence": "QVQLVESGGGLDQAGGRLRLSCAASGRTFVYYAMGWYRQAPGKERELVATITRGGRTNYADSVKGRFTISRDNAKNTVYLQMNSLKPEDTAVYYCNARYSWWRSRVGSSHRPDGYWGQGTQVTVSS", "polyreactivity (PSR sort gate)": "high polyreactivity"},
      {"sequence": "VQLVESGGGLVQAGGSLRLSCAASGFTFRWYAMGWYRQAPGKERELVAAISRGGNTNYADSVKGRFTISRDNANNTVYLQMNSLNPDDTAVYYCAAGHGSLRYNYWGQGSQVTVSS", "polyreactivity (PSR sort gate)": "high polyreactivity"},
      {"sequence": "QVQLVESGGGLVQAGGSLRLSCAASRIFRGYAMGWYRQAPGKERELVAAIRRGGSTNYADSVKGRFTIARDNAKNTVYLQMNSLKPEDTAVYYCNAYLYFPRYDYWGQGTQVTVSS", "polyreactivity (PSR sort gate)": "high polyreactivity"},
      {"sequence": "QDQLVESGGGLVQARGSLRLSSAATGSIFGTKAKGWYRQATGKEKEYDAAIDYSGSITRYADSVKGRFTISRDLSKNTVYLKMNSLKPEDTAVYYCAARSYAKDWGGYNYWGQGTQGTVSS", "polyreactivity (PSR sort gate)": "high polyreactivity"},
      {"sequence": "QVQLVESGGGLVQAGGSLRLICAASGSIFCTYAMGWYRQAPGKERELVAAITTSVGRTYYADSVKGRFTISRDNAKNTVYLHMNSLKPDDTAVYYCYAVRGGRYGLDYWGQGTHVTVSS", "polyreactivity (PSR sort gate)": "high polyreactivity"},
      {"sequence": "QVQIVESGGGLVQAGGSLRISCAASGLTFHRYAMGRYRQAPGKERELVAAINYSGGRTYYADSVKGRFTISRDNAKNTVYLQMNSLKPVDTAVYYCAAPRASGYYWGQGTQVTVSS", "polyreactivity (PSR sort gate)": "high polyreactivity"},
      {"sequence": "QVQLVESGGGLVQAGGSLRLSCAASGSTFWSYAMGWYRPAPGKERELVAAITSGGRTYYADSVKGRFTISRDNAKNTVYLQMNSLKPEDTAVYYCNAVVRHTYRRFDYWGQGTQVTVSS", "polyreactivity (PSR sort gate)": "high polyreactivity"},
      {"sequence": "QVQLVESGGGLVQAGGSLRLSCAASGSIFIQYAMGWYSQAPGKERELVAAINSSGGRTYYADSVKGRFTISRDNAKNTVYLQMNSLKPEDTAVYYCAADPGSSFDWGQGTQVTVSS", "polyreactivity (PSR sort gate)": "low polyreactivity"},
      {"sequence": "QVQLVESGGGLVQAVGSLRLSCAASGSTFNRYALGWYRQAPGKERQLVAAITVRGNTYYADSVKGRFTISRDNAKNTVYLQMNSLKPEDTAVYYCAARIYYLYKDRRLGYYWGQGTQVTVSS", "polyreactivity (PSR sort gate)": "high polyreactivity"},
      {"sequence": "QVQLVESGGGLVQAGGSLRLSCAASGFIRTAYAMGWYRQAPGKERELVAAIDWIGGSTYYADSVKGRFTISRDNAKNTVYLQMNSLKPEDTAVYYCAAVRYYWGQGTQVTVSS", "polyreactivity (PSR sort gate)": "low polyreactivity"},
      {"sequence": "QVQLVESGGGLVQAGGSLRLSCAASGFTLDNYAIGWYRPAPGKERELVAASSWSGGRTYYADSVKGRFTISRDNAKNTVYLQMNSLKPEDTAVYYCYASPYGRKYGILADGDYWGQGTQVTVSS", "polyreactivity (PSR sort gate)": "high polyreactivity"},
      {"sequence": "QVQLVESGGGLVHAGGSLRLSCAASGRTFRWYALGWYRQAPGKERELVAAISSSGTRTYYADSVKGRFTISRDNAKNTVYLQMNSLKPEDTAVYYCAATWRVGYDYWGQGTQVTVSS", "polyreactivity (PSR sort gate)": "high polyreactivity"},
      {"sequence": "QVQLVESGVGLVQAGGRLRLSCAASGSIFASSAMGWYRKAPGKERELVAVINSYDRTNYADSVKGRFTISRDNAKNTVYLKMNSLKPEDTAVYYCNADAIRIIPAYDYWGQGTQVTVSS", "polyreactivity (PSR sort gate)": "low polyreactivity"},
      {"sequence": "QVQLVESGGGLVQAGGSLRLSCAASGRIFGPYVMGWYRQAPGKEREFVAAISRRTGSTYYADSVKGRFTISRDNAKNTVYLQMNSLKPEDTAVYYCAATYYFSHVVGYGYWGQGTQVTVSS", "polyreactivity (PSR sort gate)": "high polyreactivity"},
      {"sequence": "QVQLVESGGGLVQAGGSLRLSCAASGSTFDVYAMGWYRQAPGKERELVAAISRSGGSTYYADSVKGRFTISRDNAKNTVYLQMNSLKPEDTAVYYCNARLARWGSYEYNYWGQGTQVTVSS", "polyreactivity (PSR sort gate)": "low polyreactivity"},
      {"sequence": "QVQLVESGGGLVQAGGSLRLSCAASGSIFGVNAMGLYRQAPGKERELVASISLSDDRTYYADSVKGRFTISRDNAKNTVYLQMNSLKPEDTAVYYCARRILWYWDVYPSLAEYDYWGQGTQVTVSS", "polyreactivity (PSR sort gate)": "low polyreactivity"},
      {"sequence": "QVQLVESGGGLVQAGGSLRLSCAASGFIFAFYDKGWYRQAPGKERELVAAISWGGSTYYADSVKGRVTISRDNAKNTVYLQMNSLKPEDTAVYYCAARLSRSYLYGYWGQGTQVTVSS", "polyreactivity (PSR sort gate)": "high polyreactivity"},
      {"sequence": "QVQLVESGGGLVQAGGSLRLSCAASGRTYRYAMGWYRQPPGKERELVAGISSSGTSTNYADSVKGRFTISRDNAKNTVYLQMNSLKPEDTAVYYCNADIIWFPADYLYDYWGQGTQVTVSS", "polyreactivity (PSR sort gate)": "low polyreactivity"},
      {"sequence": "QVQLVESGGGLVQAGGSLRLSCAASGSTFSRYAMGWYRPAPGKERELVAAISYSGDSTYYADSVKGRFTISRDNAKNTVYLQMNSLKPEDTAVYYCNVYSHYRGYYWGQGTQVTVSS", "polyreactivity (PSR sort gate)": "high polyreactivity"},
      {"sequence": "QVQLVESGGGLVQAGGSLRLSCAASGITFSYYAMGWYRQAPGKEMELVAAISGRDTRTYYADSVKGRFTISRDNAKNTVYLQMNSLKPEDTAVYYCNAVRKHLLKYDYWGQGTQVTVSS", "polyreactivity (PSR sort gate)": "high polyreactivity"},
      {"sequence": "QVQLVESGGGLVQAGGSLRLSCAASGIIFVDYVMGWYRQAPGKERELVAAITYTGGSTYYADSVKGRFTISRDNAKNTVYLQMNSLKPEDTAVYYCAARRNDRFFPAYYYWGQGTQVTVSS", "polyreactivity (PSR sort gate)": "high polyreactivity"},
      {"sequence": "QVHLVESGGGLVQAGGSLRLSSAASGITFWHNTMGWYRQAPGKERELVAAISWTGGRTYYADSVKGRFTISRDNAKNTVYLQMNSLKPEDTAVFSCAADFSWTPCGNYDSWGQGTQVTVSS", "polyreactivity (PSR sort gate)": "low polyreactivity"},
      {"sequence": "QVQLVESGGGLVQAGGSLRLSCAPSGRIFFYYVMGWYRQAPGKERELVAAITRSGGSTYYADSVKGRFTISRDNAKNTVYLQMNSLKPEDTAVYYCAVGDGFEFDWGQGTQVTVSS", "polyreactivity (PSR sort gate)": "low polyreactivity"},
      {"sequence": "QVQLVESGGGLVQAGGSLRLSCAASGLTFGSKAMGWYRQAPGKERELLAAISWNGGSTSYADSVKGRFTISRDNAKHTVYLQMNSLKPEDTAVNYCAADYFDSSYQPTDSILYEYWGQGTQVTVSS", "polyreactivity (PSR sort gate)": "low polyreactivity"},
      {"sequence": "QVQLVESGGGLVQAGGSLRFSCAASGSTFYYYAMGWYRQAPGKERELVAAINTSGGITYYADSVKGRFTISRDNAKNTVYLQMNSLKPEDTAVYYCATQLWDRYGFGYWGQGTQVTVSS", "polyreactivity (PSR sort gate)": "high polyreactivity"},
      {"sequence": "QVQLVESGGGLVQAGGSLRLSCAASGSTFGVYAMGWSRQAPGKERELDAAIRWSDGTTYYADSVKGRFTNSRDNAKNPVYLQMNSLKPEDTAVYYCAAVGYKRGTGRYGYWGQGTQVTVSS", "polyreactivity (PSR sort gate)": "high polyreactivity"},
      {"sequence": "QVQLVESGGGLVQAGGSLRLSCAASGSIFGSYAMGWYRQAPGKERELVAAITSGGSTHYADSVKGRFTISRDNAKNTVYLQMNSLKPEDTAVYYCNAQALRLFWRYDYWGLGTQVTVSS", "polyreactivity (PSR sort gate)": "low polyreactivity"},
      {"sequence": "QVQLVESGGGLVQAGGSLRLSCAASGSIFLVNAMGWYRQAPGKERELVASITWRGGRTYYADSVKGRFTISRDNAKNTVYLEMNSLKPEDTAVYYCAARNYRTGERLRYDYWGQGTQVTVSS", "polyreactivity (PSR sort gate)": "low polyreactivity"},
      {"sequence": "QVKLVESGGGLVQAGGSLRLSCAASARIFAQYDMGWYRQEPGKEREFVAAISGGGSSKYYADSVKGRFTISRDNAKNTGYLQMNSLKPEDTAVYYCAAYGRYPSWYAPGNEYWGQGTQVTVSS", "polyreactivity (PSR sort gate)": "low polyreactivity"},
      {"sequence": "QVQLVESGGGLVHAGGSLRLSCAASGLIFPRYDMGWYRQAPGKELELVAAITSGGGTYYADSVKGRITISRDNAKNTVYLQMNSLIPEDTAVYYCARDHYRHSRFFYRYVYWGQGTQVSVSS", "polyreactivity (PSR sort gate)": "low polyreactivity"},
      {"sequence": "QVQLVESGGGLVQAGGSLRLSCAASGSTFVGYAMGWYRQAPGKEREVVAAISGSGTSTYYADSVKGRFTISRDNAKNTVYLQMNSLKPEDTAVYYCNSDPIFVYSSYNYWGQGTQVTVSS", "polyreactivity (PSR sort gate)": "low polyreactivity"},
      {"sequence": "QVQLVESGGGLVQAGGSLRLSCAASGITFWHNTMGWYRQAPGKERELVAAISWTGGRTYYADSVKGRFTISRDNAKNSVYLQMNSLKPEDTPVYYCAADFSWTPSGNYDSWGQGTQVTVSS", "polyreactivity (PSR sort gate)": "low polyreactivity"}
    ]}
  ]
}
